# Measured values from US20240270821A1, “GIP/GLP1/GCG TRI-RECEPTOR AGONISTS AND USES THEREOF” (priority 2023, published 2024).
# Residue numbers refer to the chain shown, from its start. Starred links: 1 amine or outer side, 2 acyl side, 3 side chain; linkers in the order of their positions; H or OH if unused. Non-standard residues stand in square brackets, D forms with d. Groups on a side chain read outwards from the residue. No end group written: not given here. *: point of attachment. C18 diacid = O=C(O)CCCCCCCCCCCCCCCCC(=O)*; γGlu = O=C(O)[C@H](CCC(=O)[*:2])N[*:1]; αMe4Pal = C[C@](N)(Cc1ccncc1)C(=O)O; 4Pal = N[C@@H](Cc1ccncc1)C(=O)O; αMeL = CC(C)C[C@](C)(N)C(=O)O; Orn = NCCC[C@H](N)C(=O)O; Dab = NCC[C@H](N)C(=O)O; Aib = CC(C)(N)C(=O)O
# T1: human GIP receptor (human) (UniProt P48546)
# T1 sequence (looked up): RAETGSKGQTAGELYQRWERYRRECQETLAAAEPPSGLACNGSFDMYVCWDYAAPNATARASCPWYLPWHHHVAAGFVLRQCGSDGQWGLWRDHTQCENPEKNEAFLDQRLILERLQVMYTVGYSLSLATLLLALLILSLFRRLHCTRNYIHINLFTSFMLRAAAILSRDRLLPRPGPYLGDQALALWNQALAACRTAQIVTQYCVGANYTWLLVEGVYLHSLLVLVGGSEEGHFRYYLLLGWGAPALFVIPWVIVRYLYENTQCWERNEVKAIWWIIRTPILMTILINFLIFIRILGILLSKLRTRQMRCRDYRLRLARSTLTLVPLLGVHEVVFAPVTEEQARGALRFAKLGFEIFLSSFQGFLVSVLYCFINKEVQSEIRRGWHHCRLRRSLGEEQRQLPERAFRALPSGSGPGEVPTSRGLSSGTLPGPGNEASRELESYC
# B1: Example 1047 (peptide)
# chain: YXQGTFTSDFSXXLDKKAQXAFIEYLLEGGPSSGAPPPGGSEE
# modifications: non-natural residues, C-terminal amide, acylated Lys with fatty diacid; synthetic construct; SITE 2: note = 2-Aminoisobutyric Acid; SITE 12: note = L-ornithine; SITE 13: note = alpha-methyl-leucine; SITE 17: note = Lysine is chemically modified through conjugation of the epsilon-amino group of the Lysine side chain with (gamma-Glu)2-CO-(CH2)16-CO2H; SITE 20: note = 2-Am
# B2: Example 1051 (peptide)
# chain: B1 chain with E28A, G39E
# modifications: Aib, Orn, αMeL; acylated Lys; C-terminal amide; synthetic construct; SITE 2: note = 2-Aminoisobutyric Acid; SITE 12: note = L-ornithine; SITE 13: note = alpha-methyl-leucine; SITE 17: note = Lysine is chemically modified through conjugation of the epsilon-amino group of the Lysine side chain with (gamma-Glu)2-CO-(CH2)16-CO2H; SITE 20: note = 2-Am
# B3: Example 1038 (peptide)
# chain: YXQGTFTSDFSQXLDXKAQXAFIEYLLEAGPSSGAPPPSGSEEE
# modifications: synthetic construct; SITE 2: note = 2-Aminoisobutyric Acid; SITE 13: note = alpha-methyl-leucine; SITE 16: note = L-ornithine; SITE 17: note = Lysine is chemically modified through conjugation of the epsilon-amino group of the Lysine side chain with (2-[2-(2-Amino-ethoxy)-ethoxy]-acetyl)-(gamma-Glu)
# B4: Example 1039 (peptide)
# chain: B3 chain
# modifications: not fully specified; synthetic construct; SITE 2: note = 2-Aminoisobutyric Acid; SITE 13: note = alpha-methyl-leucine; SITE 16: note = L-ornithine; SITE 17: note = Lysine is chemically modified through conjugation of the epsilon-amino group of the Lysine side chain with (gamma-Glu)2-CO-(CH2)16-CO2H; SITE 20: note = 2-Am
# B5: Example 1040 (peptide)
# chain: B3 chain with Y25X
# modifications: Aib, αMeL, Orn, Me4Pal; acylated K; C-terminal amide; synthetic construct; SITE 2: note = 2-Aminoisobutyric Acid; SITE 13: note = alpha-methyl-leucine; SITE 16: note = L-ornithine; SITE 17: note = Lysine is chemically modified through conjugation of the epsilon-amino group of the Lysine side chain with (gamma-Glu)2-CO-(CH2)16-CO2H; SITE 20: note = 2-Am
# B6: Example 1041 (peptide)
# chain: YXQGTFTSDXSQXLDXKAQXAFIEXLIEGGPSSGAPPPSGSEE
# modifications: Aib, 4Pal, Orn, Me4Pal, αMeY; acylated lysine; amide; synthetic construct; SITE 2: note = 2-Aminoisobutyric Acid; SITE 10: note = 3-(4-Pyridyl)-L-alanine; SITE 13: note = alpha-methyl-leucine; SITE 16: note = L-ornithine; SITE 17: note = Lysine is chemically modified through conjugation of the epsilon-amino group of the Lysine side chain with (2-[2-(2-
# B7: Example 1065 (peptide)
# chain: B6 chain with Q12X, I27L
# modifications: Aib, 4Pal, Orn, αMeL, αMeY; lipidated Lys; C-terminal amide; synthetic construct; SITE 2: note = 2-Aminoisobutyric Acid; SITE 10: note = 3-(4-Pyridyl)-L-alanine; SITE 12: note = L-ornithine; SITE 13: note = alpha-methyl-leucine; SITE 16: note = L-ornithine; SITE 17: note = Lysine is chemically modified through conjugation of the epsilon-amino group of the Lys
# B8: Example 1068 (peptide)
# chain: B1 chain with F10X, K16X, E28A, G39S
# modifications: C-terminal amide; lysine acylated with (γ-Glu)2-C18 diacid; synthetic construct; SITE 2: note = 2-Aminoisobutyric Acid; SITE 10: note = 3-(4-Pyridyl)-L-alanine; SITE 12: note = L-ornithine; SITE 13: note = alpha-methyl-leucine; SITE 16: note = L-ornithine; SITE 17: note = Lysine is chemically modified through conjugation of the epsilon-amino group of the Lys
# B9: Example 1069 (peptide)
# chain: B1 chain with F10X, K16X, E28A, G39S
# modifications: non-natural residues; acylated Lys; C-terminal amide; synthetic construct; SITE 2: note = 2-Aminoisobutyric Acid; SITE 10: note = 3-(4-Pyridyl)-L-alanine; SITE 12: note = L-ornithine; SITE 13: note = alpha-methyl-leucine; SITE 16: note = L-ornithine; SITE 17: note = Lysine is chemically modified through conjugation of the epsilon-amino group of the Lys
# B10: Example 1049 (peptide)
# chain: B1 chain with K16X, Y25X
# modifications: Aib, Orn, αMeL, αMeY; acylated Lys; C-terminal amide; synthetic construct; SITE 2: note = 2-Aminoisobutyric Acid; SITE 12: note = L-ornithine; SITE 13: note = alpha-methyl-leucine; SITE 16: note = L-ornithine; SITE 17: note = Lysine is chemically modified through conjugation of the epsilon-amino group of the Lysine side chain with (gamma-Glu)2-CO-(CH2)
# B11: Example 1045 (peptide)
# chain: B6 chain with A21Q
# modifications: non-natural residues; lipidated Lys AEEA-γGlu-C18 diacid; C-term amide; synthetic construct; SITE 2: note = 2-Aminoisobutyric Acid; SITE 10: note = 3-(4-Pyridyl)-L-alanine; SITE 13: note = alpha-methyl-leucine; SITE 16: note = L-ornithine; SITE 17: note = Lysine is chemically modified through conjugation of the epsilon-amino group of the Lysine side chain with (2-[2-(2-
# B12: Example 1064 (peptide)
# chain: B6 chain with Q12X, I27L
# modifications: Aib, 4Pal, Orn, αMeL, αMeY; lysine acylated C18 diacid; amide; synthetic construct; SITE 2: note = 2-Aminoisobutyric Acid; SITE 10: note = 3-(4-Pyridyl)-L-alanine; SITE 12: note = L-ornithine; SITE 13: note = alpha-methyl-leucine; SITE 16: note = L-ornithine; SITE 17: note = Lysine is chemically modified through conjugation of the epsilon-amino group of the Lys
# B13: Example 1048 (peptide)
# chain: B1 chain with K16X
# modifications: non-natural residues (Aib, Orn, αMeL); lipidated Lys; C-terminal amide; synthetic construct; SITE 2: note = 2-Aminoisobutyric Acid; SITE 12: note = L-ornithine; SITE 13: note = alpha-methyl-leucine; SITE 16: note = L-ornithine; SITE 17: note = Lysine is chemically modified through conjugation of the epsilon-amino group of the Lysine side chain with (gamma-Glu)2-CO-(CH2)
# Target: hGLP-1R (Homo sapiens, UniProt P43220)
# Sequence (P43220 24-463): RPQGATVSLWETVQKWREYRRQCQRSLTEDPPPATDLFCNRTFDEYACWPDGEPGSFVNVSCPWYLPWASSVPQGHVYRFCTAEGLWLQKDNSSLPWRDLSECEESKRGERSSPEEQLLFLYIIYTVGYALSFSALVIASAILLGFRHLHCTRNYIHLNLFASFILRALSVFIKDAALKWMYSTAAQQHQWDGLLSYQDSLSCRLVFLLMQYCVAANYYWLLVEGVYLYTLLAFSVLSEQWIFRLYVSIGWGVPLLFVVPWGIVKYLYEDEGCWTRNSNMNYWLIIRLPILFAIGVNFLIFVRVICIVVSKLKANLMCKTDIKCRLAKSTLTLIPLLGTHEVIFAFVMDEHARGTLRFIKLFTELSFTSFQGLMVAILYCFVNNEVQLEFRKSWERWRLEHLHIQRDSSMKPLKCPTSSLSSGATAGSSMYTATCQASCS
# Assay: cell-based or functional assay
Binder,Relative cAMP EC50 [nM],"cAMP Rel EC50, nM (1% HSA) [nM]",cAMP Rel EC50 (1% HSA) [nM]
B1,16.2,1960,
B2,8.3,,
Y[Aib]QGTFTSD[4Pal]S[Dab][αMeL]LD[Orn]K([γGlu-γGlu-C18 diacid])AQ[αMe4Pal]AFIE[αMe4Pal]LLAGGPSSGAPPPEGSEE-NH2 [Example 1055],14.6,,
B3,1.45,349,
B4,1.65,413,
B5,,322,
Y[Aib]QGTFTSD[4Pal]S[Dab][αMeL]LD[Orn]K([γGlu-γGlu-C18 diacid])AQ[Aib]AFIE[αMe4Pal]LLAGGPSSGAPPPEGSEE-NH2 [Example 1054],9.53,,
B6,,316,
B7,11.6,,2290
B8,11.6,,1330
B9,8.87,,1290
B10,2.23,,780
B11,,276,
B12,7.89,,912
B13,6.23,1900,

# Target: T1, human GIP receptor (human)
# Assay: cell-based or functional assay
Binder,Relative cAMP EC50 [nM],"cAMP Rel EC50, nM (1% HSA) [nM]",cAMP Rel EC50 (1% HSA) [nM]
B1,0.28,60.8,
B2,0.172,,32.6
Y[Aib]QGTFTSD[4Pal]S[Dab][αMeL]LD[Orn]K([γGlu-γGlu-C18 diacid])AQ[αMe4Pal]AFIE[αMe4Pal]LLAGGPSSGAPPPEGSEE-NH2 [Example 1055],0.366,,78.9
B3,0.134,29.8,
B4,0.118,26.8,
B5,,20.8,
Y[Aib]QGTFTSD[4Pal]S[Dab][αMeL]LD[Orn]K([γGlu-γGlu-C18 diacid])AQ[Aib]AFIE[αMe4Pal]LLAGGPSSGAPPPEGSEE-NH2 [Example 1054],0.797,,79.4
B6,,75.7,
B7,0.293,,39.1
B8,0.211,,20.2
B9,0.417,,39.5
B10,0.24,,56.2
B11,,107,
B12,0.556,,62.5
B13,0.356,108,

# Target: human glucagon receptor (human) (UniProt P47871)
# Sequence (P47871 26-477): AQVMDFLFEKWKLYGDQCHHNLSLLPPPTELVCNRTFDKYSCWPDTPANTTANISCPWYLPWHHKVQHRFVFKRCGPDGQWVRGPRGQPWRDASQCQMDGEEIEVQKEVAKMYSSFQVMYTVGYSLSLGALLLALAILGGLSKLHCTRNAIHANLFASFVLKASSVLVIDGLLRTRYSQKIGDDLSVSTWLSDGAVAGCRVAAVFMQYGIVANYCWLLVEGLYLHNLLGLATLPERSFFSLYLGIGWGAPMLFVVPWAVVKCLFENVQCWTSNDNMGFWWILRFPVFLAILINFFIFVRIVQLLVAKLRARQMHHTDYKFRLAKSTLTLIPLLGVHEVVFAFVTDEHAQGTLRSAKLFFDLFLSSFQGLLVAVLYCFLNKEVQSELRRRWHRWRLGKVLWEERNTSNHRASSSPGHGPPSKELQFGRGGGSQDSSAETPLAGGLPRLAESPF
# Assay: cell-based or functional assay
Binder,Relative cAMP EC50 [nM],"cAMP Rel EC50, nM (1% HSA) [nM]",cAMP Rel EC50 (1% HSA) [nM]
B1,8.18,1510,
B2,10.3,,1800
Y[Aib]QGTFTSD[4Pal]S[Dab][αMeL]LD[Orn]K([γGlu-γGlu-C18 diacid])AQ[αMe4Pal]AFIE[αMe4Pal]LLAGGPSSGAPPPEGSEE-NH2 [Example 1055],1.88,,450
B3,5.93,1300,
B4,7.46,2020,
B5,,2020,
Y[Aib]QGTFTSD[4Pal]S[Dab][αMeL]LD[Orn]K([γGlu-γGlu-C18 diacid])AQ[Aib]AFIE[αMe4Pal]LLAGGPSSGAPPPEGSEE-NH2 [Example 1054],8.06,,1630
B6,,1720,
B7,19.7,,3080
B8,4.8,,295
B9,21.2,,2160
B10,6.33,,1280
B11,,1540,
B12,13.7,,1940
B13,6.9,1930,
